In this experiment the target is T1, AbApeO-AbApeC heterodimer (ketosynthase-chain length factor complex of the aryl polyene biosynthesis gene … (Acinetobacter baumannii)).
T1 chain 1: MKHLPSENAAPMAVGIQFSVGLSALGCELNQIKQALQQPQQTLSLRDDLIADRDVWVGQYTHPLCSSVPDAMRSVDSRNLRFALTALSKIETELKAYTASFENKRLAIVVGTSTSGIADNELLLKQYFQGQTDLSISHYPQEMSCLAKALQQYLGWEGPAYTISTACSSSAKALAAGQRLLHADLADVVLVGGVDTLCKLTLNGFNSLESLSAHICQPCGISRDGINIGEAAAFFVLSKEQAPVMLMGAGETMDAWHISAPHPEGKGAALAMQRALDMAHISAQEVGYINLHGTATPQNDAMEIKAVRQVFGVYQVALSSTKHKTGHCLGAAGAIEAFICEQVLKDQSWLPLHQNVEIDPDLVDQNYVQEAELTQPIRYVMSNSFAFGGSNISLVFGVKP
T1 chain 2: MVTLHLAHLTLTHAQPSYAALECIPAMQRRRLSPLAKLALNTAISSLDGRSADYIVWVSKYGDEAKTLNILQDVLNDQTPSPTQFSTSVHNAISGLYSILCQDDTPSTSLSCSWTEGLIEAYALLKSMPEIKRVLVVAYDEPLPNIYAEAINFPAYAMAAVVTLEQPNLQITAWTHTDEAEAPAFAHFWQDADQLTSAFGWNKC
Description: ITC. In general terms: Isothermal titration calorimetry measures the heat released or taken up as one component is titrated into another.

B1: holo ACP2 (ApeF), acyl carrier protein 2 of the A. baumannii APE gene cluster (natural protein)
chain: MSNLADELKQMIIDVLALEDITIADIDTEAPLFGEGLGLDSIDALELGLALKKRYNIHLNAESDETKQHFKSIQSLVALVEAQQKS
modifications: 4'-phosphopantetheine (holo form)
What is called Kd is the equilibrium constant for the complex coming apart. A low value points to higher affinity. Take B1: the affinity, expressed as Kd, was 42.7 µM.

The values are drawn from publication PMC8358021 (2021).
